Test results published in article doi:10.1101/2024.09.16.613291.
Where two headings read alike, the source gives them in different places.

Tests used:
[1] = target: PP2A:B55 holoenzyme (PP2Aa:B55:PP2Ac), purified, active, methylated on PP2Ac L309 (UniProt P30153)
[2] = target: PP2A:B55 holoenzyme (PP2Aa:B55:PP2Ac), purified, active, methylated on PP2Ac L309 (UniProt P30153); remark: listed apart in the source

UniProt P30153, sequence (P30153 9-589, chain 1 of 3): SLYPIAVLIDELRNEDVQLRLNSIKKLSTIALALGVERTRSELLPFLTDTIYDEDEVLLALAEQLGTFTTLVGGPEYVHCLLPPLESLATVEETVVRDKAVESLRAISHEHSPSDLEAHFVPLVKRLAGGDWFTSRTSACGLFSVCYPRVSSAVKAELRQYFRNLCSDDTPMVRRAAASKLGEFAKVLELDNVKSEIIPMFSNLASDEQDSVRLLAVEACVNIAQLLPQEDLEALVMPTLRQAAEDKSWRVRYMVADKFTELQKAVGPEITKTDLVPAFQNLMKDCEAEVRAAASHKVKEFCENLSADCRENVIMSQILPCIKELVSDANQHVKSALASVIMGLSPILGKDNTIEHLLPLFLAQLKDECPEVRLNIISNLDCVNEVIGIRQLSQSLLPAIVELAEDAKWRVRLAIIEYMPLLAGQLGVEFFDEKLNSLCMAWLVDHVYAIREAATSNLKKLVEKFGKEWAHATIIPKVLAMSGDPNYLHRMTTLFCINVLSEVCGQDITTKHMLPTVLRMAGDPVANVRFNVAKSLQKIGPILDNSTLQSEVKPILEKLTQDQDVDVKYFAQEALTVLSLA
UniProt P30153, sequence (P63151 whole entry, chain 2 of 3, further chain): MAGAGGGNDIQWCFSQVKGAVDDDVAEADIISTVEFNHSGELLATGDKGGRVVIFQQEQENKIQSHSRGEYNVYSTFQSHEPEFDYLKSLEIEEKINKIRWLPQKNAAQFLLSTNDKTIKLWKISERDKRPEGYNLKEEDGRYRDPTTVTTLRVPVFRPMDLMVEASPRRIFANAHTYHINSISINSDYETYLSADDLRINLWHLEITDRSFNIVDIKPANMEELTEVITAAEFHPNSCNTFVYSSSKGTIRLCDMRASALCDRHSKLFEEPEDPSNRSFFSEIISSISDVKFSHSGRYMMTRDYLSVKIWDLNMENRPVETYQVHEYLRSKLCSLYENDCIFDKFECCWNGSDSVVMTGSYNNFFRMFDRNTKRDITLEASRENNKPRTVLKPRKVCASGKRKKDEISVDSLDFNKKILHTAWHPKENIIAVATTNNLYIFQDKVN
UniProt P30153, sequence (P67775 whole entry, chain 3 of 3, further chain): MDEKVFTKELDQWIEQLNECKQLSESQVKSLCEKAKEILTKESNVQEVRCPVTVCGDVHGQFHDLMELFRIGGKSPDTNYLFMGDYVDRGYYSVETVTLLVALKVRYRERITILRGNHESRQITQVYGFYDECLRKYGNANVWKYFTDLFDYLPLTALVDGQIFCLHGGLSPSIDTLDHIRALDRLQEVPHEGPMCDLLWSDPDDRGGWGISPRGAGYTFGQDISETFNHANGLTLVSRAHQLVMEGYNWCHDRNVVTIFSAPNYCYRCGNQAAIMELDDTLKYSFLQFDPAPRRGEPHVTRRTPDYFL

IC50 of inhibition of PP2A:B55 (1 nM) dephosphorylation of DiFMUP (50 uM) [1] [nM] | IC50 of inhibition of PP2A:B55 (1 nM) dephosphorylation of DiFMUP (50 uM) [2] [nM] | Binder
1100 |  | RSSNDYTSQMYSAKPYAHILSVPVSETAYPGQTQYQTLQQTQPYAVYEE (domain or fragment) [Eya3 PP2A:B55 interaction domain (aa 62-108) with C-terminal EE]
 | 245 | p107 interdomain region (residues 612-687) (domain or fragment) MPMSPLMHPRVKEVRTDSGSLRRDMQPLSPISVHERYSSPTAGSAKRRLFGEDPPKEMLMDKIITEGTKLKIAPSS
